Data taken from IntAct's records for PubMed 11483518.

B1: POU domain class 2-associating factor 1 (Homo sapiens), Q16633 (parent)
chain: MLWQKPTAPEQAPAPARPYQGVRVKEPVKELLRRKRGHASSGAAPAPTAVVLPHQPLATYTTVGPSCLDMEGSVSAVTEEAALCAGWLSQPTPATLQPLAPWTPYTEYVPHEAVSCPYSADMYVQPVCPSYTVVGPSSVLTYASPPLITNVTTRSSATPAVGPPLEGPEHQAPLTYFPWPQPLSTLPTSTLQYQPPAPALPGPQFVQLPISIPEPVLQDMEDPRRAASSLTIDKLLLEEEDSDAYALNHTLSVEGF
partner: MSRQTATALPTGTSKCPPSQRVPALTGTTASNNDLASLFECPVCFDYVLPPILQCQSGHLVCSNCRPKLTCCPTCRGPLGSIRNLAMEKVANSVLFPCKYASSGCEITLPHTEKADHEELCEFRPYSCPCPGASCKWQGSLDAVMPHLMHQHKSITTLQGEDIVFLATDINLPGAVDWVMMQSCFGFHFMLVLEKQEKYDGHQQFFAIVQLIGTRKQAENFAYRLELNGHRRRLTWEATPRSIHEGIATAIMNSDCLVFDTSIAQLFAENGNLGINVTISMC

Variants of: B1
Conditions: with siah1_human SIAH1, Q8IUQ4

Variant	effect of a mutation on the interaction
MLWQKPTAPEQAPAPARPYQGVRVKEPVKELLRRKRGHASSGAAPAPTAVELPHQPLATYTTVGPSCLDMEGSVSAVTEEAALCAGWLSQPTPATLQPLAPWTPYTEYVPHEAVSCPYSADMYVQPVCPSYTVVGPSSVLTYASPPLITNVTTRSSATPAVGPPLEGPEHQAPLTYFPWPQPLSTLPTSTLQYQPPAPALPGPQFVQLPISIPEPVLQDMEDPRRAASSLTIDKLLLEEEDSDAYALNHTLSVEGF [V51E]	disrupting interaction
